Assay results taken from publication PMC6315623.

B1: unnamed (parent)
chain 1: PHLSRQPEQPEQRALGPVSMPNLVPEVIDLTCHEAGFPPSDDEDEEG
chain 2: MPQPIEKVSVSTQTKKLSASSPRMLHRSTQTTNDGVCQSMCHDKYTKIFNDFKDRMKSDHKRETERVVREALEKLRSEMEEEKRQAVNKAVANMQGEMDRKCKQVKEKCKEEFVEEIKKLATQHKQLISQTKKKQWCYNCEEEAMYHCCWNTSYCSIKCQQEHWHAEHKRTCRRKR

Variants of: B1
Experiment: yeast two-hybrid (β-galactosidase activity)
Conditions: with partner chain of the complex shown; n = 3; parent: 100; read off a plot

Question: Which percent of parent does the source give for chain 1 N22A here?
Answer: The percent of parent was 100%.

Question: How did the percent of parent turn out when chain 1 P25A was run?
Answer: The percent of parent was 180%.

Question: chain 1 V24A was tested. Which percent of parent did it give?
Answer: Its percent of parent is 100%.

Question: chain 1 I28A was tested. Which percent of parent did it give?
Answer: The percent of parent was 140%.

Question: Which percent of parent does the source give for chain 1 S19A here?
Answer: The percent of parent was 89%.

Question: Which percent of parent does the source give for chain 1 E26A here?
Answer: Its percent of parent is 150%.

Question: chain 1 M20A was tested. Which percent of parent did it give?
Answer: The percent of parent was 160%.

Question: How did the percent of parent turn out when chain 1 V27A was run?
Answer: Its percent of parent is 130%.
